The target in the assay is human CD3 epsilon (CD3ε) (human) (UniProt P07766). Put plainly: flow cytometry on human T cells. (In general: A flow cytometer gives signals particle by particle.)

OKT3 (antibody) showed a concentration for a half-maximal effect (EC50 (read off the curve)) of 0.03 nM.

The term EC50 (read off the curve) denotes the concentration giving half of the maximal effect.

Values taken from patent US20230057263A1.
